Test results taken from the DeepSol protein solubility set.

Experiment: soluble on expression in E. coli; label from the status in PepcDB or PDB records

| Sequence | soluble on expression in E. coli |
| --- | --- |
| MKKSAFIFSDGELKRKDSTVLFESEDSKNYLPIEDISDIYIFGEVTVTKKFLELATQKEILLHFYNYNEYYVGTYYPREHYNSGFMILKQAEHYLDEEKRMAIAKKFIHGSVKNMLAVLKYYNNREKDLDRQITAISDLAEKIDEMDEINKLMAIEGNIREIYYGSFDIIVDDEYFEFGKRTKQPPKNRMNSLISFGNSILYTTVLSEIYKTHLDPRIGYLHSTNHRRFTLNLDVAEIFKPIIVDRVIFTLIGKKMLGEKHFEEKAGGIVLNDKGRKQFVAQMLEKLNATLMYKPLGREVSYRRLIRLELYKLEKHLMGEQEYKPYVASW | soluble |
| MKKSNIYIGEVIKQVIAEKQVTKAELARRLGVKPQSVDYLLTRKSIDTDTLYSLSLALDYDFAVLYSIKKEHALATDEESPFKVGNAKISLEIELRPDEMLKLNLKQKIADLLEGKGK | not soluble |
| MKKTLTSPLVAAIAHTAAPVHAGTLEDVKARGNLLCSSTTGSPGFSMPDDAGKRHGLEVDVCRAIATAVFGDPERHKIVVLNPIQRFTALQSGEVDILFNTTTWTLSREGAGALYAGVTYYDGQGVLVRKGTIASAKELDGGAICTNQGSTTELNLVDFFRANKVSNEVITFATVQEAANAYESGRCDAWSADAGILAALRSKMKAPDDHVILADRLSKEPLGAAVRKGDDAWFSVVRWSIFALQAAEELGLTSKNIAEQAKSTTNPEVLRFVGKEGSLGKVLGLNGDWAYQIVAQVGSYAEIFDRNIGAASPLNLERGINASWKNGGLFYTPPFR | not soluble |
| MKKVSIIIPFKGQTEAELMLPLSSIYNQIGVDLSQLDIHLVNDGGKTIDLSKFDVLADRLEIHYHEIPNGGPGVARQYGIDNSISEYIMFIDADDVLYYVGALWPFYNASNQGHQMIRASYWEQIAGNPYTYTVHGNGDRKAAYGKWYKRSYIEMLGLRFMPDLPIYEDTYFVGLACELATDTCFLEEKVYMWLANPNSITRTVENKFNYQAHIYARENRYWFEMIRKWKPECLVTDFENYLTNMYLKSQKYPPVDEKAWWEEQHKLITSVSDIFSGWTQELQKQVELEHHHHHH | not soluble |
| MKKWAVWLCSLLLLLPLSACTNDGGQSEKPLKKVRLAEVTHSIFYAPQYVALAKGFFKEEGLDVELTTTWGGDKTMTTLLSGGADIALVGSETSIYVYSQGTDDPVINFAQLTQTDGTFLVSRKKIGHFTWEMLKGSTFLGQRKGGMPQMVGEFVLKKHGIDPHQDLKLIQNVDFANIANAFASGTGDFVQLFEPTASLFEQEGKGYIVASFGTESGRVPYTSYMAKRSYMNENKDVIEKFTRAIYKAQQWVESHSAAEIAKAIQPYFKDTDSAIIEKVVERYKSQGTYATDPILDEEEWNNLQTIMAEAGELPKRIDLNTLVDSSFAKNAMND | not soluble |
| MKLALTLEADSVNVQALNMGRIVVDVDGVNLSELINKVSENGYSLRVVDKSDQHATSTPPPLTTLTCIRCSTAHITETDNAWLYSLSHQTNDDGETEWIHFTGSGYLLRTDAWSYPVLRLKRLGLSRTFRRLVVTLTRRYGVSLIHLDAGAECLPGFPTFDW | not soluble |
| MKLERQKLLAKVAYLYYMEGKSQSEIANELGIYRTTISRMLAKAREEGLVRIEISDFNPEIFQLESYFKSKYHLKDIEIVSSRKDSDTSEIEKDLAHVAAAMIRKKIKENDKVGIAWGRTLSKVVEAMRPHPVSQVSFVPLAGGPSHINARYHVNTLVYEMSRRFQGSCTFINATLVQENANLAKGILTSKYFEGLMDNWEKLDVAIVGVGGKPKSNEQQWLDLLNQDDFQCLDEEAAVGEITCRFFNHSGDPVNQHLAKRTIGITLEQLQKVPNRIAVAHGNYKAAALLAVLKKGYINHLVTDFSTALNILRLDKDTFVDTIYQKS | not soluble |
| MKLGFIGLGIMGSPMAINLARAGHQLHVTTIGPVADELLSLGAVNVETARQVTEFADIIFIMVPDTPQVEDVLFGEHGCAKTSLQGKTIVDMSSISPIETKRFAQRVNEMGADYLDAPVSGGEIGAREGTLSIMVGGEQKVFDRVKPLFDILGKNITLVGGNGDGQTCKVANQIIVALNIEAVSEALVFASKAGADPVRVRQALMGGFASSRILEVHGERMINRTFEPGFKIALHQKDLNLALQSAKALALNLPNTATCQELFNTCAANGGSQLDHSAMVQALELMANHKLS | soluble |
| MKLGVVTRKGKRQDDIRMFSQFFEVKVYEIPEELPELIDEPAEILRLPDDFDVDMIVSFAAHPDINLELIKQAAERGIGLVIISGGAKGGAYKQLKEEGEKRGVRVVWEEICCATPKVEDERTREFFEHFGAPEVEVEVENGKVKDVRVKRSAFCGATYYVAEKIKGLSVEEAPTKAGYYTQIYPCLAPRGHEGGIHKAARAHKRAVEKAIEKSK | not soluble |
| MKLIGITGMPGSGKSAITKLAEKYKIVVVSMGDVVRYETLKQGMPLNPENVGNTAVKLREIYGKEAIAVPCLNYVNEKYNNEDFVIIEGIRSIYEVNYIKKHAELDIIAIHSSPKTRFERLSGRNREDDSNDWNTFVERDERELNFSIGRVISLADYMVVNEGNYMDFVNDLENTFKKIINVN | not soluble |
| MKLIITSGGTTEPIDAVRGITNHSTGQLGKLITERFLQYHHDVTLVTTKTATKPLPNKRLRIIEVETVNDLMAALKDQVPHHDILIHSMAVSDYTPVYMTDLEQVSQADNLNCFLCEHNSEPKISSASDYQVLFLKKTPKVISYVKQWNPNIKLVGFKLLVNVPQEELIKVARASLAKNHADYILANDLVDIQTGMHKALLISNNEVASADTKEAIADLLYERMTKHD | not soluble |
| MKLKQLEGLLGDLEQFSNPKNRSVIGFDIDPESLETATLNAEELEVEIDFVQCDITKLELKGLIVDTVVMNPPFGTRKKGADMEFLSAAMKVASKAVYSLHKTSTRELRYDLPKLYKFHKRKEVDIAVDLWRFEPRQN | soluble |
| MKLKVVYRKVSDYICYDLKEIVLPSSLPDPPHVVKRRKLTWHERFLVLKEASRLYAASWVRDIGPELRPNDYKKQGDAEPKKQAKEAENEPSVLEDLAVAARGGMETLRPALHRLYMTRASNYKDALTSFIKGYHEGLQQVMQNKAESEAPADEADKSKKTT | soluble |
| MKLLTSPFQGLKWLAPLLADDGSLHIPPQDLIQHKGISSWEVKVIVTRIDFLADQVTGTAIHQLTIDPARPFSGTEVPINITGEGTLLVTMQITAMSEDRPYCNRQYLAADIIAVVPPGVQNKVHNITHPAAPTIQHLSVGGGYTPIRQLVVQRE | not soluble |
| MKLRTKIKRVRDVELPKYAKTGDSGFDLVAAEDTVIWPGETKVVPTGLAFEIPPGYELQVRPRSGMTRNTKLRVVLGTVDSGYRGEVGVLVDNTEIPKATNMQAHVIEKGTRIAQGVIVPVITAHFEEVDELSDSERGSGGFGSTGVK | not soluble |
| MKLTGKQTWVFEHPIFVNSAGTAAGPKEKDGPLGSLFDKTYDEMHCNQKSWEMAERQLMEDAVNVALQKNNLTKDDIDLLLAGDLLNQNVTANYVARHLKIPFLCMFGACSTSMETVAVASALVDGGFAKRALAATSSHNATAERQFRYPTEYGGQKPDTATSTVTGSGAVVISQTPGDIQITSATVGKVSDLGITDPFDMGSAMAPAAADTIKQHFKDLNRTADDYDLILTGDLSGVGSPIVKDILKEDGYPVGTKHDDCGLLIYTPDQQVFAGGSGCACSAVVTYSHIFKQLREGKLNRVFVVATGALLSPTMIQQKETIPTIAHGVVFERAGGASLEHHHHHH | soluble |
| MKLTIHEIAQVVGAKNDISIFEDTQLEKAEFDSRLIGTGDLFVPLKGARDGHDFIETAFENGAAVTLSEKEVSNHPYILVDDVLTAFQSLASYYLEKTTVDVFAVTGSNGKTTTKDMLAHLLSTRYKTYKTQGNYNNEIGLPYTVLHMPEGTEKLVLEMGQDHLGDIHLLSELARPKTAIVTLVGEAHLAFFKDRSEIAKGKMQIADGMASGSLLLAPADPIVEDYLPIDKKVVRFGQGAELEITDLVERKDSLTFKANFLEQALDLPVTGKYNATNAMIASYVALQEGVSEEQIRLAFQHLELTRNRTEWKKAANGADILSDVYNANPTAMKLILETFSAIPANEGGKKIAVLADMKELGDQSVQLHNQMILSLSPDVLDIVIFYGEDIAQLAQLASQMFPIGHVYYFKKTEDQDQFEDLVKQVKESLGAHDQILLKGSNSMNLAKLVESLEN | soluble |
| MKLTKTLLTTALFGASIFSFQSTAWADTPEQQFQQGLTAYEQSDYQTAFKLWLPMAEQGYAQAQGGLGMMYERGLGVKQDDFKAVNWYRKAAEQGDADAQLNLGAMYAIGHGVKQDGVEAVKWFRKAAEQGNAKAQNGLGMMYRGRLGIKQDYFKAVKWYRKAAEQGYGGAQVMLGFSYLSGKGVQVNKSLAKEWFGKACDNGEQVGCEYYSKLNRGER | not soluble |
| MKLVFYGAGNMAQAIFTGIINSNNLNANDIYLTNKSNEQALKSFAEKLGVNYSYDDEALLKDADYVFLGTKPHDFENLANRIREHITNDNRFISIMAGLSIDYIRQQLNTNNPLARIMPNTNAQVGHSVTGISFSNNFDPKSKNEVDELINAFGSVIEVSEEHLHQVTAITGSGPAFLYHVFEQYVKAGTELGLERNQVEESIRNLIIGTSKMIERSDLSMSQLRKNITSKGGTTQAGLDALSQYDIVSMFEDCLGAAVNRSMELSHKEDELEHHHHHH | soluble |
| MKLWSGGIQRDQNADSTVAFVKRDIEAEIYLMKYEILSLIAYHLDLAQRRLITEAESKCIINSLISLLQDSPKIDPEQEDAHTAVENAVIERCGDMGRNVRLFLSRNEQVHANVLMFTIERCHSIISILLDSIKVLKGADLKGLLPGTTHFMPAMPVTAATYSNYIENSLALAIRSIDRSLADASVLPYGYGSGYGSPNSGKLKVMSEMLGIGPVLKNPMIASSLYQFTIMQISNSIAGLSITLSRIAMDLIEYYRDGYVSLSDEFTTGSSLMPNKRNPDYLELLQGMAAVSSSVAVMSAMATMNKTSGYHRDFQMLKDSYIDMLNYIEEALLRLPDLFKGLRFEITDPMMLPGSIFATGNAWEDFANTHDWKQSYANIGRKIREKQDLKRYMPEDYVDIVEMHYLEEIEKKYGEILKKWDYLIEKAEAYISE | soluble |
| MKMFLAQKGVPFEFVNAREDEEARKKVTALAGSPTAGVVLEWEGGTEVIRGVSPASLHAWLARYRGKEA | soluble |
| MKMKYEWRKQEKTTYATKKQPQLLTIPAQTFMSIHGTGNPNGPEFQTHLQTLYPAAYGLKHAYKQYAQTQACEFDDYVVFPLEGVWSLTIKGQQLDHLDKDEFSYDIMIRVPDFVPNELIAPALAAVKAKKQLPTEQINVQQFDAMQVAQILHLGAYDDEPASFAKIDELVANQGMHRTSKIHREIYLSDARRVAPDKLKTILRYRVASN | not soluble |
| MKMMDANEIISFIQKSEKKTPVKVYIKGDLKEVTFPETVQAFVNKKSGVLFGEWSEIKTILDENSKYIVDYVVENDRRNSAIPMLDLKGIKARIEPGAIIRDHVEIGDNAVIMMNATINIGAVIGEGSMIDMNAVLGGRATVGKNCHVGAGAVLAGVIEPPSAKPVIVEDDVVIGANVVVLEGVTVGKGAVVAAGAVVTEDVPPYTVVAGTPARVIKEIDEKTKAKTEIKQELRQLNPEK | not soluble |
